Key:
[1] = target: proHB-EGF mutated at the protease cleavage site, expressed on Ba/F3 cells (HB-EGF_Ba/F3) (human) (UniProt Q99075); assay: FACS, hybridoma culture supernatant on HB-EGF_Ba/F3 cells, EXP. 2 (no-mAb 6.9)
[2] = target: proHB-EGF mutated at the protease cleavage site, expressed on Ba/F3 cells (HB-EGF_Ba/F3) (human) (UniProt Q99075); assay: FACS, hybridoma culture supernatant on HB-EGF_Ba/F3 cells, EXP. 1 (no-mAb 19.1)
[3] = target: T1, active-form HB-EGF protein (R&D Systems, Inc., 259-HE) (human, UniProt Q99075 63-148); assay: cell-based or functional assay
[4] = target: T2, HB-EGF expressed on the cell membrane (proHB-EGF), from pMCN_HB-EGF in DG44 and SKOV-3 cells or intrinsic in … (human, UniProt Q99075 20-208); assay: cell-based or functional assay
[5] = target: T1, active-form HB-EGF protein (R&D …); assay: ELISA on plate coated with 1 ug/mL HB-EGF protein (R&D 259-HE), AP-labeled anti-human IgG; the text says ED50, about
[6] = target: T2, HB-EGF expressed on the cell membrane …; assay: FACS on HB-EGF_DG44 cells, FITC-labeled anti-human IgG, Geo-Mean against concentration; the text says ED50, about

T2 sequence (Q99075 20-208 limits assumed): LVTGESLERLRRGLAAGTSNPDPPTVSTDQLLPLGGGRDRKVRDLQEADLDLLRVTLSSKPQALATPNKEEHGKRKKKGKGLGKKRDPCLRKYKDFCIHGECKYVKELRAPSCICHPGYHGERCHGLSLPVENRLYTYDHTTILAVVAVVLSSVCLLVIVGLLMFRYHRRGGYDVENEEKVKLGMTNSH
T1 sequence (Q99075 63-148 limits assumed): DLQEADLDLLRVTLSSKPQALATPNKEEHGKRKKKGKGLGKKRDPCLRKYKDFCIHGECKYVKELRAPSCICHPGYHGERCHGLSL

B1: HC-15 antibody (antibody, V domains shown)
VH: EVQLQQSGPELVKPGASVKISCKASGYSFTGYYMHWVKQSPEKRLEWIGEINPRTGITTYNQKFKAKATLTVDKSSSTAYMQLKSLTSEDSAVYYCARVGSSGPFTYWGQGTLVTVSA
VL: DIVMTQSPSSLSVSAGDKVTMSCKSSQSLLNSRNQKNYLAWYQQKPWQPPKLLIYGASTRESGVPDRFTGSGSGTDFTLTISSVQAEDLAVYYCQNDYSYPFTFGTGTKLEIK
In the case of B1, the FACS (GEO-mean) [1] is reported as 234 GEO-mean, the FACS (GEO-mean) [2] is reported as 594 GEO-mean and the “EC50 of the growth-inhibiting effect on EGFR_Ba/F3 cells” value [3] is reported as 3.8 nM.

B2: saporin-labeled HC-15 antibody (HC-SAP) (antibody, V domains shown)
VH: EVQLQQSGPELVKPGASVKISCKASGYSFTGYYMHWVKQSPEKRLEWIGEINPRTGITTYNQKFKAKATLTVDKSSSTAYMQLKSLTSEDSAVYYCARVGSSGPFTYWGQGTLVTVSA
VL: DIVMTQSPSSLSVSAGDKVTMSCKSSQSLLNSRNQKNYLAWYQQKPWQPPKLLIYGASTRESGVPDRFTGSGSGTDFTLTISSVQAEDLAVYYCQNDYSYPFTFGTGTKLEIK
modifications: antibody labeled with an average of 2.4 saporin molecules; sites not stated
For B2, the “EC50 of cell death induction, ES-2 cells (WST-8)” value [4] was 0.09 nM, the “EC50 of cell death induction, MCAS cells (WST-8)” value [4] was 0.86 nM and the “EC50 of cell death induction, SKM-1 cells (WST-8)” value [4] was 0.02 nM. For the same binder, the “EC50 of cell death induction, THP-1 cells (WST-8)” value [4] was 0.01 nM and the “EC50 of cell death induction, U937 cells (WST-8)” value [4] was 0.33 nM.

B3: chHC15, human chimeric antibody derived from HC15 antibody (antibody, human IgG1, kappa, V domains shown)
VH: EVQLQQSGPELVKPGASVKISCKASGYSFTGYYMHWVKQSPEKRLEWIGEINPRTGITTYNQKFKAKATLTVDKSSSTAYMQLKSLTSEDSAVYYCARVGSSGPFTYWGQGTLVTVSA
VL: DIVMTQSPSSLSVSAGDKVTMSCKSSQSLLNSRNQKNYLAWYQQKPWQPPKLLIYGASTRESGVPDRFTGSGSGTDFTLTISSVQAEDLAVYYCQNDYSYPFTFGTGTKLEIKR
In the case of B3, the EC50 [5] is reported as 0.21 nM and the EC50 [6] is reported as 3.3 nM.

B4: chHE39, human chimeric antibody derived from HE39 antibody (antibody, V domains shown)
VH: EVQLQQSGPELMKPGASVKMSCKASGYIFTDYYMNWVKQSHGKSLEWIGRVNPNNGGTSYSQKFKDKATLTVDKSLNTAYMQVNSLTSEDSAVYYCARIYYGGSDWGQGTTLTVSS
VL: EIVMTQTPLSLSVTIGQPASISCKSSQSLLYTTGKTYLNWLQQRPGQAPKHLMYQVSKLVPGIPDRFSGSGSETDFTLKISRVEAEDLGVYYCLQGTYYPHTFGSGTKLEIKR
notes: Mouse HE39 variable regions linked to human IgG1 constant regions
In the case of B4, the EC50 [5] is reported as 0.42 nM and the EC50 [6] is reported as 5.3 nM.

— patent publication US20120282173A1 (FORERUNNER PHARMA RESEARCH, published 2012)
